According to patent US20190010227A1 (WELSON PHARMACEUTICALS, published 2019):
Changes are numbered by the printed parent chain.

B1: Mouse monoclonal antibody LA22 (antibody, V domains shown)
VH: EVQLVESGGGLVQPGESLKLSCESNEYEFPSHDMSWVRKTPEERLELVAAITSDGISTYYPDTMERRFLISRDNTKKTLYLQMSSLRSEDTALYYCSRHDWDEGFASWGQGTLVTVSA
VL: DVVMTQTPLSLPVSLGDQASISCRSSQSLVHSNGNTYLHWYLQKPGQSPKLLIYKVSNRFSGVPDRFSGSGSGTDFTLKISRVEAEDLGIYFCSQSSHVPPAFGGGTKLEIK
notes: Mouse hybridoma antibody (ATCC deposit, US 5,459,061); the mouse constant regions are not; also called mLA22; mouse LA22
B2: Humanized LA22 (H3 + h2) (antibody, V domains shown)
VH: EVQLVESGGGLVQPGGSLRLSCASNEYEFPSHDMSWVRQTPGKGLEWVSAITSDGISTYYPDTMERRFTISRDNSKNTLYLQMSSLRAEDTAVYYCARHDWDEGFASWGQGTLVTVSS
VL: B1 VL with T7S, S14T, D17Q, Q18P, L42Q, K44R, K50R, L88V
notes: also called hLA22; hLA22 h2H3
B3: Humanized LA22 (H1 + h2) (antibody, human IgG1, V domains shown)
VH: B2 VH with A23E, T40A, S84N
VL: B1 VL with T7S, S14T, D17Q, Q18P, L42Q, K44R, K50R, L88V
notes: Human IgG1 / kappa constant regions; also called H1-LA22 / h2-LA22
B4: Humanized LA22 (H2 + h2) (antibody, human IgG1, V domains shown)
VH: B2 VH with A23E, T40A, S75T, N77K, S84N
VL: B1 VL with T7S, S14T, D17Q, Q18P, L42Q, K44R, K50R, L88V
notes: Human IgG1 / kappa constant regions; also called H2-LA22 / h2-LA22
B5: Humanized LA22 (H4 + h2) (antibody, human IgG1, V domains shown)
VH: B2 VH with G44R
VL: B1 VL with T7S, S14T, D17Q, Q18P, L42Q, K44R, K50R, L88V
notes: Human IgG1 / kappa constant regions; also called H4-LA22 / h2-LA22
B6: Humanized LA22 (H0 + h2) (antibody, human IgG1, V domains shown)
VH: B2 VH with S24A, N25S, T40A, S84N
VL: B1 VL with T7S, S14T, D17Q, Q18P, L42Q, K44R, K50R, L88V
notes: Human IgG1 / kappa constant regions; also called HO-LA22 / h2-LA22

Biological target: T1, EGFR on A431 cell surface (human, UniProt P00533 25-1210)
T1 construct: whole, on cells; also called EGFR expressed on A431 cell surface; EGFR on live A431 cell surface
Assay: cell-based ELISA on A431 cells, HRP-conjugated goat anti-mouse IgG, TMB, OD450
Procedure: (§1) 3. Cell ELISA assay A431 cells were seeded at 20,000 cells/well of 96-well plate in DMEM-10% FBS and incubated at 37° C. 5% CO₂. 24 hours later, discard the medium. After two washes with PBS and blocking with 5% skim-milk/PBS for 1 h, wells were incubated with different concentration of mLA22 and hLA22 in 5% skim-milk-PBS for another one hour. After two washes with PBS, wells were then incubated with HRP-conjugated goat anti-mouse IgG secondary antibodies or HRP-conjugated goat anti-human IgG secondary antibodies (Jackson Lab) in 5% skim-milk-PBS for 1 h at room temperature. After washes with PBS, HRP substrate 3, 3′, 5, 5′-tetramethylbenzidine (TMB) solution was added. The reaction was stopped with stop solution (0.1M […]) and absorbance was measured at 450 nm with a microplate reader.

Row | EC50 (read off the curve) | Binder
1 | ~1 µg/mL | B1

Biological target: T1, EGFR on A431 cell surface
Assay: cell-based ELISA on A431 cells, HRP-conjugated goat anti-human IgG, TMB, OD450
Procedure: as §1

Row | EC50 (read off the curve) | Binder
2 | ~1 µg/mL | B2

Biological target: T2, ECD of rec. EGFR (human, UniProt P00533 25-645)
T2 construct: extracellular domain; also called human epidermal factor receptor (EGFR)
Assay: SPR (BIAcore), chip coated with ECD of rec. EGFR
Excerpt: 1. Biacore assay. To test the affinity between human epidermal factor receptor (EGFR) and the present invention of humanized anti-EGFR antibody using BIAcore system which is based on the surface plasmon resonance technique, the chip was coated with ECD of rec. EGFR.

Row | Kd | koff | kon | Binder
3 | 2 nM | 4.3e-05 s⁻¹ | 22000 M⁻¹ s⁻¹ | B1
4 | 14 nM | 0.000146 s⁻¹ | 10400 M⁻¹ s⁻¹ | B3
5 | 12 nM | 7.7e-05 s⁻¹ | 6400 M⁻¹ s⁻¹ | B4
6 | 15.4 nM | 0.000188 s⁻¹ | 12200 M⁻¹ s⁻¹ | B5
7 | 13.2 nM | 6.9e-05 s⁻¹ | 5200 M⁻¹ s⁻¹ | B6
8 | 2.3 nM | 3.8e-05 s⁻¹ | 16400 M⁻¹ s⁻¹ | B2
